Biological target: T1, EsCas13d, nuclease-dead (Eubacterium siraeum, UniProt B0MS50, R295A;H300A;R849A;H854A)
T1 sequence: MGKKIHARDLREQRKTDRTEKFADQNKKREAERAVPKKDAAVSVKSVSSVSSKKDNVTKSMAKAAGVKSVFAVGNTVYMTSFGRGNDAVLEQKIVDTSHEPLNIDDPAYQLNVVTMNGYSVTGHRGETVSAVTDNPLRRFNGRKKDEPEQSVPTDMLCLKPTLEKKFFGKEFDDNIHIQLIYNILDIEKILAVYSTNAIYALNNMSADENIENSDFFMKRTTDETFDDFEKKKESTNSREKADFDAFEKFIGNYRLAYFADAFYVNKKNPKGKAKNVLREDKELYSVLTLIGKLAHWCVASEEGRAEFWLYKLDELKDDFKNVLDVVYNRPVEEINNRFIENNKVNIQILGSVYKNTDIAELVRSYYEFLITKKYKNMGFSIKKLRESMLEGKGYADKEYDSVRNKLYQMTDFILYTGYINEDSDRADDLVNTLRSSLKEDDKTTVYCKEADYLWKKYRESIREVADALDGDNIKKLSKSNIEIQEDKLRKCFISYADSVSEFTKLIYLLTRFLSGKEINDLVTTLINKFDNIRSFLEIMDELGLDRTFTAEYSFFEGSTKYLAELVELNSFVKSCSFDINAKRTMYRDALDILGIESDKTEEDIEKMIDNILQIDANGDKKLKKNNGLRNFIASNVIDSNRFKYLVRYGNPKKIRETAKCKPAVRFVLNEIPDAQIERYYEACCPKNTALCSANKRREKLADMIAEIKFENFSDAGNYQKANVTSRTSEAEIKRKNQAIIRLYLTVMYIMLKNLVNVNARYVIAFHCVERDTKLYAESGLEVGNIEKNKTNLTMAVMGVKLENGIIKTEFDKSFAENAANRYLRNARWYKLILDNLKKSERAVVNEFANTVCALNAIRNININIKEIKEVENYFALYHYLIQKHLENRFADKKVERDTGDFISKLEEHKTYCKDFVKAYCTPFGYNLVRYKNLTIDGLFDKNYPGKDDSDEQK
Assay: crRNA (strand 1, pre-loaded); Mg2+; 40 mM Tris-HCl pH 7.5, 150 mM NaCl, 6 mM MgCl2, 1 mM DTT, 0.1% Tween-20, 0.2 mg/ml BSA; 25 C; 10 min per concentration, then washed
Settings: tags: His6-TwinStrep-SUMO cleaved; N-terminal SNAP kept (SNAP-Surface 488); label: 3' end held by stalled T7 RNA polymerase

Binder	Kd [nM]
target 1 MT 5'PFS ACG 3'PFS UCC (mixed) RNA 1: CACCCGUGCAAAAAUGCAGGGGUCUAAAACUGAGCGGAUAACCUCUCUAUGG RNA 2: GGGAAUGGAUCCACAUCUACGAAUUCACGCCAUAGAGAGGUUAUCCGCUCAUCCAGAUCGGAAGAGCACACGU	~31
target 1 insU 3' of 12,insU 3' of 6 (mixed) RNA 1: CACCCGUGCAAAAAUGCAGGGGUCUAAAACUGAGCGGAUAACCUCUCUAUGG RNA 2: GGGAAUGGAUCCACAUCUACGAAUUCGUACCAUAGAGAGGUUUAUCCUGCUCACCGAGAUCGGAAGAGCACACGU	9.5 ± 0.4
target 1 MT 5'PFS CAG 3'PFS UAU (mixed) RNA 1: CACCCGUGCAAAAAUGCAGGGGUCUAAAACUGAGCGGAUAACCUCUCUAUGG RNA 2: GGGAAUGGAUCCACAUCUACGAAUUCCAGCCAUAGAGAGGUUAUCCGCUCAUAUAGAUCGGAAGAGCACACGU	51.5 ± 21
target 1 MT 5'PFS GGU 3'PFS ACU (mixed) RNA 1: CACCCGUGCAAAAAUGCAGGGGUCUAAAACUGAGCGGAUAACCUCUCUAUGG RNA 2: GGGAAUGGAUCCACAUCUACGAAUUCGGUCCAUAGAGAGGUUAUCCGCUCAACUAGAUCGGAAGAGCACACGU	~63
target 1 MT 5'PFS GUG 3'PFS UCG (mixed) RNA 1: CACCCGUGCAAAAAUGCAGGGGUCUAAAACUGAGCGGAUAACCUCUCUAUGG RNA 2: GGGAAUGGAUCCACAUCUACGAAUUCGUGCCAUAGAGAGGUUAUCCGCUCAUCGAGAUCGGAAGAGCACACGU	10.5 ± 0.62
target 1 MT 5'PFS AGA 3'PFS UUA (mixed) RNA 1: CACCCGUGCAAAAAUGCAGGGGUCUAAAACUGAGCGGAUAACCUCUCUAUGG RNA 2: GGGAAUGGAUCCACAUCUACGAAUUCAGACCAUAGAGAGGUUAUCCGCUCAUUAAGAUCGGAAGAGCACACGU	42 ± 11
target 1 MT 5'PFS AAU 3'PFS UUG (mixed) RNA 1: CACCCGUGCAAAAAUGCAGGGGUCUAAAACUGAGCGGAUAACCUCUCUAUGG RNA 2: GGGAAUGGAUCCACAUCUACGAAUUCAAUCCAUAGAGAGGUUAUCCGCUCAUUGAGAUCGGAAGAGCACACGU	72 ± 26
target 1 MT 5'PFS GUG 3'PFS UCC (mixed) RNA 1: CACCCGUGCAAAAAUGCAGGGGUCUAAAACUGAGCGGAUAACCUCUCUAUGG RNA 2: GGGAAUGGAUCCACAUCUACGAAUUCGUGCCAUAGAGAGGUUAUCCGCUCAUCCAGAUCGGAAGAGCACACGU	10.9 ± 1.1
target 1 insG 3' of 16,insG 3' of 3 (mixed) RNA 1: CACCCGUGCAAAAAUGCAGGGGUCUAAAACUGAGCGGAUAACCUCUCUAUGG RNA 2: GGGAAUGGAUCCACAUCUACGAAUUCGUACCAUAGAGGAGGUUAUCCGCUGCACCGAGAUCGGAAGAGCACACGU	16.2 ± 1.1
target 1 MT 5'PFS AAU 3'PFS UUC (mixed) RNA 1: CACCCGUGCAAAAAUGCAGGGGUCUAAAACUGAGCGGAUAACCUCUCUAUGG RNA 2: GGGAAUGGAUCCACAUCUACGAAUUCAAUCCAUAGAGAGGUUAUCCGCUCAUUCAGAUCGGAAGAGCACACGU	20 ± 5.5
target 1 MT 5'PFS CUU 3'PFS UUA (mixed) RNA 1: CACCCGUGCAAAAAUGCAGGGGUCUAAAACUGAGCGGAUAACCUCUCUAUGG RNA 2: GGGAAUGGAUCCACAUCUACGAAUUCCUUCCAUAGAGAGGUUAUCCGCUCAUUAAGAUCGGAAGAGCACACGU	20.9 ± 4.25
target 1 MT 5'PFS UAC 3'PFS UUG (mixed) RNA 1: CACCCGUGCAAAAAUGCAGGGGUCUAAAACUGAGCGGAUAACCUCUCUAUGG RNA 2: GGGAAUGGAUCCACAUCUACGAAUUCUACCCAUAGAGAGGUUAUCCGCUCAUUGAGAUCGGAAGAGCACACGU	7.55 ± 1.15
target 1 MT 5'PFS CAC 3'PFS UCC (mixed) RNA 1: CACCCGUGCAAAAAUGCAGGGGUCUAAAACUGAGCGGAUAACCUCUCUAUGG RNA 2: GGGAAUGGAUCCACAUCUACGAAUUCCACCCAUAGAGAGGUUAUCCGCUCAUCCAGAUCGGAAGAGCACACGU	20.5 ± 6.5
target 1 MT 5'PFS GUG 3'PFS UCA (mixed) RNA 1: CACCCGUGCAAAAAUGCAGGGGUCUAAAACUGAGCGGAUAACCUCUCUAUGG RNA 2: GGGAAUGGAUCCACAUCUACGAAUUCGUGCCAUAGAGAGGUUAUCCGCUCAUCAAGAUCGGAAGAGCACACGU	14.5 ± 1.45
target 1 MT 5'PFS AGA 3'PFS UUG (mixed) RNA 1: CACCCGUGCAAAAAUGCAGGGGUCUAAAACUGAGCGGAUAACCUCUCUAUGG RNA 2: GGGAAUGGAUCCACAUCUACGAAUUCAGACCAUAGAGAGGUUAUCCGCUCAUUGAGAUCGGAAGAGCACACGU	50 ± 18
target 1 MT 5'PFS AGA 3'PFS UUU (mixed) RNA 1: CACCCGUGCAAAAAUGCAGGGGUCUAAAACUGAGCGGAUAACCUCUCUAUGG RNA 2: GGGAAUGGAUCCACAUCUACGAAUUCAGACCAUAGAGAGGUUAUCCGCUCAUUUAGAUCGGAAGAGCACACGU	27.5 ± 11
target 1 MT 5'PFS CUU 3'PFS UUG (mixed) RNA 1: CACCCGUGCAAAAAUGCAGGGGUCUAAAACUGAGCGGAUAACCUCUCUAUGG RNA 2: GGGAAUGGAUCCACAUCUACGAAUUCCUUCCAUAGAGAGGUUAUCCGCUCAUUGAGAUCGGAAGAGCACACGU	29.5 ± 7.5
target 1 MT 5'PFS CUA 3'PFS UUC (mixed) RNA 1: CACCCGUGCAAAAAUGCAGGGGUCUAAAACUGAGCGGAUAACCUCUCUAUGG RNA 2: GGGAAUGGAUCCACAUCUACGAAUUCCUACCAUAGAGAGGUUAUCCGCUCAUUCAGAUCGGAAGAGCACACGU	6.85 ± 2.1
target 1 U8A,U19C (mixed) RNA 1: CACCCGUGCAAAAAUGCAGGGGUCUAAAACUGAGCGGAUAACCUCUCUAUGG RNA 2: GGGAAUGGAUCCACAUCUACGAAUUCGUACCACAGAGAGGUUAACCGCUCACCGAGAUCGGAAGAGCACACGU	56 ± 9
target 1 MT 5'PFS GCU 3'PFS CCG (mixed) RNA 1: CACCCGUGCAAAAAUGCAGGGGUCUAAAACUGAGCGGAUAACCUCUCUAUGG RNA 2: GGGAAUGGAUCCACAUCUACGAAUUCGCUCCAUAGAGAGGUUAUCCGCUCACCGAGAUCGGAAGAGCACACGU	40 ± 10.5
target 1 MT 5'PFS GUG 3'PFS UCU (mixed) RNA 1: CACCCGUGCAAAAAUGCAGGGGUCUAAAACUGAGCGGAUAACCUCUCUAUGG RNA 2: GGGAAUGGAUCCACAUCUACGAAUUCGUGCCAUAGAGAGGUUAUCCGCUCAUCUAGAUCGGAAGAGCACACGU	10.3 ± 0.7
target 1 MT 5'PFS GCU 3'PFS CCU (mixed) RNA 1: CACCCGUGCAAAAAUGCAGGGGUCUAAAACUGAGCGGAUAACCUCUCUAUGG RNA 2: GGGAAUGGAUCCACAUCUACGAAUUCGCUCCAUAGAGAGGUUAUCCGCUCACCUAGAUCGGAAGAGCACACGU	~24.5
target 1 MT 5'PFS AUA 3'PFS CCG (mixed) RNA 1: CACCCGUGCAAAAAUGCAGGGGUCUAAAACUGAGCGGAUAACCUCUCUAUGG RNA 2: GGGAAUGGAUCCACAUCUACGAAUUCAUACCAUAGAGAGGUUAUCCGCUCACCGAGAUCGGAAGAGCACACGU	62 ± 26.5
target 1 MT 5'PFS CUA 3'PFS UUG (mixed) RNA 1: CACCCGUGCAAAAAUGCAGGGGUCUAAAACUGAGCGGAUAACCUCUCUAUGG RNA 2: GGGAAUGGAUCCACAUCUACGAAUUCCUACCAUAGAGAGGUUAUCCGCUCAUUGAGAUCGGAAGAGCACACGU	5.7 ± 0.65
target 1 MT 5'PFS AGA 3'PFS UUC (mixed) RNA 1: CACCCGUGCAAAAAUGCAGGGGUCUAAAACUGAGCGGAUAACCUCUCUAUGG RNA 2: GGGAAUGGAUCCACAUCUACGAAUUCAGACCAUAGAGAGGUUAUCCGCUCAUUCAGAUCGGAAGAGCACACGU	~22
target 1 MT 5'PFS CAG 3'PFS UAC (mixed) RNA 1: CACCCGUGCAAAAAUGCAGGGGUCUAAAACUGAGCGGAUAACCUCUCUAUGG RNA 2: GGGAAUGGAUCCACAUCUACGAAUUCCAGCCAUAGAGAGGUUAUCCGCUCAUACAGAUCGGAAGAGCACACGU	11.9 ± 4
target 1 MT 5'PFS CUU 3'PFS UUC (mixed) RNA 1: CACCCGUGCAAAAAUGCAGGGGUCUAAAACUGAGCGGAUAACCUCUCUAUGG RNA 2: GGGAAUGGAUCCACAUCUACGAAUUCCUUCCAUAGAGAGGUUAUCCGCUCAUUCAGAUCGGAAGAGCACACGU	14.2 ± 2.55
target 1 MT 5'PFS CAC 3'PFS UCG (mixed) RNA 1: CACCCGUGCAAAAAUGCAGGGGUCUAAAACUGAGCGGAUAACCUCUCUAUGG RNA 2: GGGAAUGGAUCCACAUCUACGAAUUCCACCCAUAGAGAGGUUAUCCGCUCAUCGAGAUCGGAAGAGCACACGU	8.65 ± 3.7

— article PMC10786891, “Massively parallel profiling of RNA-targeting CRISPR-Cas13d”
